{"source": "patent US20260008817A1", "about": "“CYCLIC PEPTIDE OR SALT THEREOF, AND USES THEREOF” (FUJIFILM Corporation, priority 2023, published 2026)", "note": "Positions of bridges follow the written chain, without caps; N, C: chain ends. No end group written: not given here. COCH2 = acetyl group that carries the bridge", "data": [{"molecular_target": "T1, Recombinant Human FGFR1 alpha (IIIc) Fc Chimera Protein (Homo sapiens, UniProt P11362)", "T1 construct": "purchased R&D systems 658-FR-050", "T1 sequence (P11362 with tags, fused parts or gaps limits assumed)": "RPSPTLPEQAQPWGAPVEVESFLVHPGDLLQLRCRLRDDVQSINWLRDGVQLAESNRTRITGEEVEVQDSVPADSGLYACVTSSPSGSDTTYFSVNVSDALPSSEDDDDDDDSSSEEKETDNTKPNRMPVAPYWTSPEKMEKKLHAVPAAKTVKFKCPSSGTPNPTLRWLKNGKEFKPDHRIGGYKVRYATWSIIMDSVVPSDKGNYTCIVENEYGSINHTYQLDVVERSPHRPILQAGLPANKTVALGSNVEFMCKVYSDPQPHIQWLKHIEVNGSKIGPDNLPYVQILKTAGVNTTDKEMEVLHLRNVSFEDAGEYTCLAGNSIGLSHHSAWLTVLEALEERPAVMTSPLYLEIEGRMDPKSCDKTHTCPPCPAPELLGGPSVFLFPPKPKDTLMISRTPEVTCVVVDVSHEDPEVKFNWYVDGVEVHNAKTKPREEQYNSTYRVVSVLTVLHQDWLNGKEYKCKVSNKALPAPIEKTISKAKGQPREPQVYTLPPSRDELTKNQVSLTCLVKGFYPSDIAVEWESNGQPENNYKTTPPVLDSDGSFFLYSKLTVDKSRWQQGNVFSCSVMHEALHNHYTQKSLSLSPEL", "experiment": "ELISA binding affinity of enzymatically synthesized peptide to FGFR", "conditions": "ELISA luminescence signal at 10 nmol/L peptide, SEQ ID NO: 239 standardized to 1; enzyme synthesis product", "description": "The binding affinity of the peptide to FGFR was evaluated using an ELISA method.\nThe peptide used for the evaluation was enzymatically synthesized by the following method.\nFirst, a fusion peptide (SEQ ID NO: 25) in which a translation enhancing sequence (SEQ ID NO: 22), a peptide, a Myc tag (SEQ ID NO: 23), and a HiBiT tag (SEQ ID NO: 24) were linked in this order was designed. Next, a template DNA sequence (SEQ ID NO: 26) was designed in which a T7 promoter sequence, a Shine-Dalgarno sequence, a sequence necessary for transcription and translation initiation, such as a start codon (ATG), was provided on the 5′ terminal side of the DNA sequence encoding the fused peptide, and a stop codon group was provided on the 3′ terminal side thereof. In a case where the triplet TAG codon is included in the template DNA sequence, the above-described codon is assigned to the codon of chloroacetylated lysine, and thus, the peptide encoded by the above-described DNA sequence is a cyclic peptide in which a thiol group of cysteine and a chloroacetyl group of chloroacetylated lysine spontaneously form a thioether bond.\nThe cell-free enzymatic synthesis of the polypeptide was performed in a translation solution containing a template DNA, PUREfrex 2.0 (GeneFrontier, PF201-0.25-5), and Aminoacyl tRNA (1). 1.75 μL ([…]) of the template DNA prepared to 50 ng/μL, 2.5 μL of PUREfrex 2.0 Solution I, 0.25 μL of Solution II, 0.5 μL of Solution III, and a dried product of Aminoacyl tRNA (1) (final concentration: 0.5 ng/μL) were mixed and mixture was subjected to a reaction at 37° C. for 1 hour.\nThe concentration of the enzymatically synthesized peptide was measured using the peptide diluted with Can Get Signal Immunoreaction Enhancer Solution I (TOYOBO, NKB-101), Nano-Glo HiBiT Lytic Detection System (Promega, N3040), and a chemical synthetic peptide for a calibration curve having a known concentration (SEQ ID NO: 33) according to the standard protocol of the Nano-Glo HiBiT Lytic Detection System.\nThe binding affinity of the enzymatically synthesized peptide to FGFR was measured by evaluating the amount of the peptide bound to FGFR by ELISA.\nFirst, 5 ng of Recombinant Human FGFR1 alpha (IIIc) Fc Chimera Protein (R&D systems, 658-FR-050) was immobilized in each well of a 96-well plate, and blocked with Pierce Protein-Free (PBS) Blocking Buffer (Thermo, 37572), and a peptide diluted with Can Get Signal Immunoreaction Enhancer Solution I (TOYOBO, NKB-101) was then added and reacted at room temperature for 3 hours. After washing with 0.05% Tween 20-containing phosphate buffered saline (PBS), an anti-Myc antibody (Cell Signaling, 14038S) diluted with Can Get Signal Immunoreaction Enhancer Solution II (TOYOBO, NKB-101) was added and reacted at room temperature for 2 hours. After washing with 0.05% Tween 20-containing PBS, SuperSignal ELISA Femto Substrate (Thermo, 37075) was added, and the luminescence amount was measured. The dose-response relationship was calculated from using the difference between the luminescence amount in the well in which FGFR was immobilized and the luminescence amount in the well in which FGFR was not immobilized, and the concentration of the peptide at the time of reaction, and the binding affinity to FGFR was evaluated according to the following evaluation criteria. The evaluation result preferably satisfies the evaluation criteria A, B, or C.\nIn a case where a value of a luminescence signal emitted by the cyclic peptide set forth in SEQ ID NO: 239 at a reaction concentration of 10 nmol/L is standardized to 1, evaluation criteria of the luminescence signal value emitted by the peptide at a reaction concentration of 10 nmol/L is as follows. • A: 0.7 or more • B: 0.5 or more and less than 0.7 • C: 0.1 or more and less than 0.5 • D: less than 0.1.", "values": [{"substance": "117 (ICVYTFDARAHSLHAALTKI; Description of Artificial Sequence: Cyclic peptide) [compound 117]", "Evaluation result of binding affinity to FGFR": "A (0.7 or more)"}, {"substance": "118 (ICVYTFDAHGHSLHAALTKI; Description of Artificial Sequence: Cyclic peptide) [compound 118]", "Evaluation result of binding affinity to FGFR": "C (0.1 or more and less than 0.5)"}, {"substance": "119 (ICVYTFDAHIHSLHAALTKI; Description of Artificial Sequence: Cyclic peptide) [compound 119]", "Evaluation result of binding affinity to FGFR": "C (0.1 or more and less than 0.5)"}, {"substance": "120 (ICVYTFDAHVHSLHAALTKI; Description of Artificial Sequence: Cyclic peptide) [compound 120]", "Evaluation result of binding affinity to FGFR": "C (0.1 or more and less than 0.5)"}, {"substance": "121 (ICVYTFDAHFHSLHAALTKI; Description of Artificial Sequence: Cyclic peptide) [compound 121]", "Evaluation result of binding affinity to FGFR": "C (0.1 or more and less than 0.5)"}, {"substance": "122 (ICVYTFDAHYHSLHAALTKI; Description of Artificial Sequence: Cyclic peptide) [compound 122]", "Evaluation result of binding affinity to FGFR": "C (0.1 or more and less than 0.5)"}, {"substance": "123 (ICVYTFDAHWHSLHAALTKI; Description of Artificial Sequence: Cyclic peptide) [compound 123]", "Evaluation result of binding affinity to FGFR": "C (0.1 or more and less than 0.5)"}, {"substance": "124 (ICVYTFDAHQHSLHAALTKI; Description of Artificial Sequence: Cyclic peptide) [compound 124]", "Evaluation result of binding affinity to FGFR": "B (0.5 or more and less than 0.7)"}, {"substance": "125 (ICVYTFDAHSHSLHAALTKI; Description of Artificial Sequence: Cyclic peptide) [compound 125]", "Evaluation result of binding affinity to FGFR": "C (0.1 or more and less than 0.5)"}, {"substance": "126 (ICVYTFDAHTHSLHAALTKI; Description of Artificial Sequence: Cyclic peptide) [compound 126]", "Evaluation result of binding affinity to FGFR": "C (0.1 or more and less than 0.5)"}, {"substance": "127 (ICVYTFDAHDHSLHAALTKI; Description of Artificial Sequence: Cyclic peptide) [compound 127]", "Evaluation result of binding affinity to FGFR": "C (0.1 or more and less than 0.5)"}, {"substance": "128 (ICVYTFDAHEHSLHAALTKI; Description of Artificial Sequence: Cyclic peptide) [compound 128]", "Evaluation result of binding affinity to FGFR": "C (0.1 or more and less than 0.5)"}, {"substance": "129 (ICVYTFDAHRHSLHAALTKI; Description of Artificial Sequence: Cyclic peptide) [compound 129]", "Evaluation result of binding affinity to FGFR": "C (0.1 or more and less than 0.5)"}, {"substance": "130 (ICVYTFDAHHHSLHAALTKI; Description of Artificial Sequence: Cyclic peptide) [compound 130]", "Evaluation result of binding affinity to FGFR": "C (0.1 or more and less than 0.5)"}, {"substance": "131 (ICVYTFDAHAASLHAALTKI; Description of Artificial Sequence: Cyclic peptide) [compound 131]", "Evaluation result of binding affinity to FGFR": "A (0.7 or more)"}, {"substance": "132 (ICVYTFDAHAGSLHAALTKI; Description of Artificial Sequence: Cyclic peptide) [compound 132]", "Evaluation result of binding affinity to FGFR": "A (0.7 or more)"}, {"substance": "133 (ICVYTFDAHAPSLHAALTKI; Description of Artificial Sequence: Cyclic peptide) [compound 133]", "Evaluation result of binding affinity to FGFR": "A (0.7 or more)"}, {"substance": "134 (ICVYTFDAHALSLHAALTKI; Description of Artificial Sequence: Cyclic peptide) [compound 134]", "Evaluation result of binding affinity to FGFR": "A (0.7 or more)"}, {"substance": "135 (ICVYTFDAHAISLHAALTKI; Description of Artificial Sequence: Cyclic peptide) [compound 135]", "Evaluation result of binding affinity to FGFR": "B (0.5 or more and less than 0.7)"}, {"substance": "136 (ICVYTFDAHAVSLHAALTKI; Description of Artificial Sequence: Cyclic peptide) [compound 136]", "Evaluation result of binding affinity to FGFR": "A (0.7 or more)"}, {"substance": "137 (ICVYTFDAHAFSLHAALTKI; Description of Artificial Sequence: Cyclic peptide) [compound 137]", "Evaluation result of binding affinity to FGFR": "C (0.1 or more and less than 0.5)"}, {"substance": "138 (ICVYTFDAHAYSLHAALTKI; Description of Artificial Sequence: Cyclic peptide) [compound 138]", "Evaluation result of binding affinity to FGFR": "C (0.1 or more and less than 0.5)"}, {"substance": "139 (ICVYTFDAHAWSLHAALTKI; Description of Artificial Sequence: Cyclic peptide) [compound 139]", "Evaluation result of binding affinity to FGFR": "C (0.1 or more and less than 0.5)"}, {"substance": "140 (ICVYTFDAHANSLHAALTK(COCH2)I; thioether 2-19 (inferred)) [compound 140]", "Evaluation result of binding affinity to FGFR": "A (0.7 or more)"}, {"substance": "141 (ICVYTFDAHAQSLHAALTK(COCH2)I; thioether 2-19 (inferred)) [compound 141]", "Evaluation result of binding affinity to FGFR": "A (0.7 or more)"}, {"substance": "142 (ICVYTFDAHASSLHAALTK(COCH2)I; thioether 2-19 (inferred)) [compound 142]", "Evaluation result of binding affinity to FGFR": "A (0.7 or more)"}, {"substance": "143 (ICVYTFDAHATSLHAALTK(COCH2)I; thioether 2-19 (inferred)) [compound 143]", "Evaluation result of binding affinity to FGFR": "A (0.7 or more)"}, {"substance": "144 (ICVYTFDAHADSLHAALTK(COCH2)I; thioether 2-19 (inferred)) [compound 144]", "Evaluation result of binding affinity to FGFR": "A (0.7 or more)"}, {"substance": "145 (ICVYTFDAHAESLHAALTK(COCH2)I; thioether 2-19 (inferred)) [compound 145]", "Evaluation result of binding affinity to FGFR": "A (0.7 or more)"}, {"substance": "146 (ICVYTFDAHARSLHAALTK(COCH2)I; thioether 2-19 (inferred)) [compound 146]", "Evaluation result of binding affinity to FGFR": "A (0.7 or more)"}, {"substance": "147 (ICVYTFDAHAHALHAALTK(COCH2)I; thioether 2-19 (inferred)) [compound 147]", "Evaluation result of binding affinity to FGFR": "B (0.5 or more and less than 0.7)"}, {"substance": "148 (ICVYTFDAHAHGLHAALTK(COCH2)I; thioether 2-19 (inferred)) [compound 148]", "Evaluation result of binding affinity to FGFR": "C (0.1 or more and less than 0.5)"}, {"substance": "149 (ICVYTFDAHAHLLHAALTK(COCH2)I; thioether 2-19 (inferred)) [compound 149]", "Evaluation result of binding affinity to FGFR": "C (0.1 or more and less than 0.5)"}, {"substance": "150 (ICVYTFDAHAHILHAALTK(COCH2)I; thioether 2-19 (inferred)) [compound 150]", "Evaluation result of binding affinity to FGFR": "C (0.1 or more and less than 0.5)"}, {"substance": "151 (ICVYTFDAHAHVLHAALTK(COCH2)I; thioether 2-19 (inferred)) [compound 151]", "Evaluation result of binding affinity to FGFR": "C (0.1 or more and less than 0.5)"}, {"substance": "152 (ICVYTFDAHAHFLHAALTK(COCH2)I; thioether 2-19 (inferred)) [compound 152]", "Evaluation result of binding affinity to FGFR": "C (0.1 or more and less than 0.5)"}, {"substance": "153 (ICVYTFDAHAHYLHAALTK(COCH2)I; thioether 2-19 (inferred)) [compound 153]", "Evaluation result of binding affinity to FGFR": "C (0.1 or more and less than 0.5)"}, {"substance": "154 (ICVYTFDAHAHWLHAALTK(COCH2)I; thioether 2-19 (inferred)) [compound 154]", "Evaluation result of binding affinity to FGFR": "C (0.1 or more and less than 0.5)"}, {"substance": "155 (ICVYTFDAHAHNLHAALTK(COCH2)I; thioether 2-19 (inferred)) [compound 155]", "Evaluation result of binding affinity to FGFR": "A (0.7 or more)"}]}]}
